According to paper PMC5428533:

Tests used:
[1] = molecular target: complement component C9 (human) (UniProt P02748); assay: MST; FH (6.67 µM) or C9 (15.15 µM) labelled with NT-647 RED-NHS; non-labelled CbiA diluted 1:2 from 76 to 0.0002 µM; fluid phase, 20% LED power, 80% MST power, 30 s, Monolith NT.115, room temperature, triplicate
[2] = molecular target: complement regulator Factor H (FH) (human) (UniProt P08603); assay: as above
Sequence of UniProt P08603 (P08603 19-1231): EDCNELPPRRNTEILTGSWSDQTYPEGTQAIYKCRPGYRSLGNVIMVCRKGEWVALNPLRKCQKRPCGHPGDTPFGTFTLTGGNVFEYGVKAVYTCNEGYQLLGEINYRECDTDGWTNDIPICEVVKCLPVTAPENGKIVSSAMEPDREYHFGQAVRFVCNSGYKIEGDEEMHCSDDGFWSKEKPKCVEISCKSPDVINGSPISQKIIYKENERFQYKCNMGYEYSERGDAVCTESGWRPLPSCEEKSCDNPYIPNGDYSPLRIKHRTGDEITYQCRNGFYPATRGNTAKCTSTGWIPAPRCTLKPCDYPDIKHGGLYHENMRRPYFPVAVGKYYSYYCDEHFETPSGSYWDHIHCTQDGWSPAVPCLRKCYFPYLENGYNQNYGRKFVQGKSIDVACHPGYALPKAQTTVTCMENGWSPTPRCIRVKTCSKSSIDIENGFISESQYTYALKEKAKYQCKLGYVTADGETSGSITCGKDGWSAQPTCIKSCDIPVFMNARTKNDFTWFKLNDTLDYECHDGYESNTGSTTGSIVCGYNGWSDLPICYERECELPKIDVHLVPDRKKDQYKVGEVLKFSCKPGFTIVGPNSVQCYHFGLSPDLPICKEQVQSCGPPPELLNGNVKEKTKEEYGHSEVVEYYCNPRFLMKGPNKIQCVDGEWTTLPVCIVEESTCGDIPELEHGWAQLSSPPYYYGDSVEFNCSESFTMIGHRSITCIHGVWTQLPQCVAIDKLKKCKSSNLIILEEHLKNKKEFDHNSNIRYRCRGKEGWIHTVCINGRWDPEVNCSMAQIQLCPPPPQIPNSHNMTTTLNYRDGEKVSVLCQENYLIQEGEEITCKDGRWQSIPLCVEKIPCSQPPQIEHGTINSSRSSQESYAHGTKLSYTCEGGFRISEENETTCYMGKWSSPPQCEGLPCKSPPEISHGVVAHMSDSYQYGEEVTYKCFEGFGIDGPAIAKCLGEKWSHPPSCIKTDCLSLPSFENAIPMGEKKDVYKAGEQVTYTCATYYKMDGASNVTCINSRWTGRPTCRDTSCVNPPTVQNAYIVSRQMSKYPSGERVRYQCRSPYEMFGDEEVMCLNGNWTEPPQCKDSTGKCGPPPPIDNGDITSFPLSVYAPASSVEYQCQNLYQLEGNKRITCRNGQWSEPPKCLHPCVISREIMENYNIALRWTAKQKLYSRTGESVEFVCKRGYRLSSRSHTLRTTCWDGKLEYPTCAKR

Sequence of UniProt P02748 (P02748 22-559): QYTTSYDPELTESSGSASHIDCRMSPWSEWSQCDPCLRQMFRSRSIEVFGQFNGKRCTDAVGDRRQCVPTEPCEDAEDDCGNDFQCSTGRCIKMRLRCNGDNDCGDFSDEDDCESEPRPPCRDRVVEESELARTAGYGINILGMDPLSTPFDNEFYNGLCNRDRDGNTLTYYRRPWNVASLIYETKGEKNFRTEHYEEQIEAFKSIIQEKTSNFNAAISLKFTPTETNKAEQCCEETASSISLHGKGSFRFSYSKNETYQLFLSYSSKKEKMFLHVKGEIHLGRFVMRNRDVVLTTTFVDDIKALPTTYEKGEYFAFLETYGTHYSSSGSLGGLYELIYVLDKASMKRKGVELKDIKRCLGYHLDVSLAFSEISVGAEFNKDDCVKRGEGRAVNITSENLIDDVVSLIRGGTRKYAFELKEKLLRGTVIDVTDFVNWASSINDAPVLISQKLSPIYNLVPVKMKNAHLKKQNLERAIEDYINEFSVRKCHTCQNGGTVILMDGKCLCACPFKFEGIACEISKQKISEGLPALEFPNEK

## CbiA (complement binding and inhibitory protein A) of B. miyamotoi HT31, His6-tagged recombinant protein (natural protein)
[1]
  Kd: 0.0524 µM
[2]
  Kd: 6.59 µM
